Results reported in PMC7856178 (Archives of biochemistry and biophysics, 2020).
Like-named read-outs stand apart in the source and are kept apart here.

What was measured:
Assay in all cases: FRET or BRET
FRET or BRET [1] = target: the molecule itself
FRET or BRET [2] = target: the molecule itself; remark: listed apart in the source
FRET or BRET [3] = target: the molecule itself; remark: listed apart in the source

B1: CYP2E1 labeled with BODIPY-618 maleimide (enzyme, human, UniProt P05181 1-493, looked up)
chain: MSSMWRQVHSSWNLPPGPFPLPIIGNLFQLELKNIPKSFTRLAQRFGPVFTLYVGSQRMVVMHGYKAVKEALLDYKDEFSGRGDLPAFHAHRDRGIIFNNGPTWKDIRRFSLTTLRNYGMGKQGNESRIQREAHFLLEALRKTQGQPFDPTFLIGCAPCNVIADILFRKHFDYNDEKFLRLMYLFNENFHLLSTPWLQLYNNFPSFLHYLPGSHRKVIKNVAEVKEYVSERVKEHHQSLDPNCPRDLTDCLLVEMEKEKHSAERLYTMDGITVTVADLFFAGTETTSTTLRYGLLILMKYPEIEEKLHEEIDRVIGPSRIPAIKDRQEMPYMDAVVHEIQRFITLVPSNLPHEATRDTIFRGYLIPKGTVVVPTLDSVLYDNQEFPDPEKFKPEHFLNENGKFKYSDYFKPFSTGKRVCAGEGLARMELFLLLCAILQHFNLKPLVDPKDIDLSPIHIGFGCIPPRYKLCVIPRS
modifications: BODIPY-618 maleimide label, 2:1 label to protein ratio (labelled residues not stated)
FRET or BRET [1]
  (Lipid/CYP2E1)50%: 176 molar ratio
FRET or BRET [2]
  (Lipid/CYP2E1)50%: 14400 molar ratio
FRET or BRET [3]
  (Lipid/CYP2E1)50%: 604 molar ratio
